Changes are numbered by the printed parent chain. Read-outs that look alike come from different tables or passages of the source.
Legend:
Assay in all cases: cell-based or functional assay
[1] = target: fibroblast activation protein (FAP) on transfected HT1080 cells (UniProt Q12884 1-760, limits assumed)
[2] = target: T1, EGFR on EGFR-positive tumor cell lines (UniProt P00533 25-1210, limits assumed)
[3] = target: T1, EGFR on EGFR-positive tumor cell lines; remark: listed apart in the source

B1: Db anti-FAP-Glyco-scTRAIL3-FAVSGAA (other)
chain: LEASDYKDDDDKGTGQVQLVQSGAEVKKPGASVKVSCKASGYTFTENIIHWVRQAPGQGLEWMGWFHPGSGSIKYNEKFKDRVTMTADTSTSTVYMELSSLRSEDTAVYYCARHGGTGRGAMDYWGQGTLVTVSSGGGGSDIQMTQSPSSLSASVGDRVTITCRASKSVSTSAYSYMHWYQQKPGKAPKLLIYLASNLESGVPSRFSGSGSGTDFTLTISSLQPEDFATYYCQHSRELPYTFGQGTKLEIKRAAAGNGTSNGTSEFGGAAAHITGTRGRSNTLSSPNSKNEKALGRKINSWESSRSGHSFLSNLHLRNGELVIHEKGFYYIYSQTYFRFQEEIKENTKNDKQMVQYIYKYTSYPDPILLMKSARNSCWSKDAEYGLYSIYQGGIFELKENDRIFVSVTNEHLIDMDHEASFFGAFAVSGAAAHITGTRGRSNTLSSPNSKNEKALGRKINSWESSRSGHSFLSNLHLRNGELVIHEKGFYYIYSQTYFRFQEEIKENTKNDKQMVQYIYKYTSYPDPILLMKSARNSCWSKDAEYGLYSIYQGGIFELKENDRIFVSVTNEHLIDMDHEASFFGAFAVSGAAAHITGTRGRSNTLSSPNSKNEKALGRKINSWESSRSGHSFLSNLHLRNGELVIHEKGFYYIYSQTYFRFQEEIKENTKNDKQMVQYIYKYTSYPDPILLMKSARNSCWSKDAEYGLYSIYQGGIFELKENDRIFVSVTNEHLIDMDHEASFFGAFAVS
modifications: 16 aa peptide linker with two N-glycosylation sites
For B1, the “EC50 of cytotoxicity on HT1080 FAP+ cells, competing with excess anti-FAP IgG” value [1] was 0.04 nM, the “EC50 of cytotoxicity on HT1080 FAP+ cells, with bortezomib, competing conditions” value [1] was 0.0041 nM and the “EC50 of cytotoxicity on HT1080 FAP+ cells, with bortezomib, non-competing conditions” value [1] was 0.002 nM. The “EC50 of cytotoxicity on HT1080 FAP+ cells, without αFAP IgG” value [1] was 0.029 nM.

B2: Db-Glyco-scTRAIL3-FAVSGAA (other)
chain: LEASDYKDDDDKGAEVQLVESGGGLVQPGGSLRLSCAASGFSLTNYGVHWVRQAPGKGLEWLGVIWSGGNTDYNTPFTSRFTISRDNSKNTLYLQMNSLRAEDTAVYYCARALTYYDYEFAYWGQGTTVTVSSGGGGSDIQLTQSPSFLSASVGDRVTITCRASQSIGTNIHWYQQKPGKAPKLLIKYASESISGVPSRFSGSGSGTEFTLTISSLQPEDFATYYCQQNNNWPTTFGAGTKLEIKRAAAGNGTSNGTSEFGGAAAHITGTRGRSNTLSSPNSKNEKALGRKINSWESSRSGHSFLSNLHLRNGELVIHEKGFYYIYSQTYFRFQEEIKENTKNDKQMVQYIYKYTSYPDPILLMKSARNSCWSKDAEYGLYSIYQGGIFELKENDRIFVSVTNEHLIDMDHEASFFGAFAVSGAAAHITGTRGRSNTLSSPNSKNEKALGRKINSWESSRSGHSFLSNLHLRNGELVIHEKGFYYIYSQTYFRFQEEIKENTKNDKQMVQYIYKYTSYPDPILLMKSARNSCWSKDAEYGLYSIYQGGIFELKENDRIFVSVTNEHLIDMDHEASFFGAFAVSGAAAHITGTRGRSNTLSSPNSKNEKALGRKINSWESSRSGHSFLSNLHLRNGELVIHEKGFYYIYSQTYFRFQEEIKENTKNDKQMVQYIYKYTSYPDPILLMKSARNSCWSKDAEYGLYSIYQGGIFELKENDRIFVSVTNEHLIDMDHEASFFGAFAVS
modifications: two N-glycosylation sites in the peptide AAAGNGTSNGTSEFGG, shown to be glycosylated
For B2, the “EC50 of cell death induction, Colo205, with Bortezomib” value [2] was 0.033 nM, the “EC50 of cell death induction, Colo205, with Bortezomib + Cetuximab” value (“EC50 … Colo205, with Bortezomib + Cetuximab” for short) [2] was 0.074 nM and the “EC50 of cell death induction, HCT116, with Bortezomib” value [2] was 0.066 nM. For the same binder, the “EC50 of cell death induction, HCT116, with Bortezomib + Cetuximab” value (from here on “EC50 … HCT116, with Bortezomib + Cetuximab”) [2] was 0.45 nM, the “EC50 of cell death induction, HT1080, with Bortezomib” value [2] was 0.001 nM and the “EC50 of cell death induction, HT1080, with Bortezomib + Cetuximab” value (“EC50 … HT1080, with Bortezomib + Cetuximab” for short) [2] was 0.01 nM.

B3: Db-Glyco-scTRAIL3-FAVSGIA (other)
chain: B2 chain with A263I, A424I, A585I
modifications: glycosylated connecting peptide
B3 was tested, and the “EC50 of cell death induction, Colo205, with Bortezomib” value [2] was 0.019 nM, the “EC50 … Colo205, with Bortezomib + Cetuximab” value [2] was 0.032 nM and the “EC50 of cell death induction, HCT116, with Bortezomib” value [2] was 0.043 nM. The “EC50 … HCT116, with Bortezomib + Cetuximab” value [2] was 0.161 nM, the “EC50 of cell death induction, HT1080, with Bortezomib” value [2] was 0.0006 nM and the “EC50 … HT1080, with Bortezomib + Cetuximab” value [2] was 0.005 nM.

B4: Db8-Glyco-scTRAIL3-FAVSGAA (other)
chain: LEASDYKDDDDKGAEVQLVESGGGLVQPGGSLRLSCAASGFSLTNYGVHWVRQAPGKGLEWLGVIWSGGNTDYNTPFTSRFTISRDNSKNTLYLQMNSLRAEDTAVYYCARALTYYDYEFAYWGQGTTVTVSSGGGGSGGGDIQLTQSPSFLSASVGDRVTITCRASQSIGTNIHWYQQKPGKAPKLLIKYASESISGVPSRFSGSGSGTEFTLTISSLQPEDFATYYCQQNNNWPTTFGAGTKLEIKRAAAGNGTSNGTSEFGGAAAHITGTRGRSNTLSSPNSKNEKALGRKINSWESSRSGHSFLSNLHLRNGELVIHEKGFYYIYSQTYFRFQEEIKENTKNDKQMVQYIYKYTSYPDPILLMKSARNSCWSKDAEYGLYSIYQGGIFELKENDRIFVSVTNEHLIDMDHEASFFGAFAVSGAAAHITGTRGRSNTLSSPNSKNEKALGRKINSWESSRSGHSFLSNLHLRNGELVIHEKGFYYIYSQTYFRFQEEIKENTKNDKQMVQYIYKYTSYPDPILLMKSARNSCWSKDAEYGLYSIYQGGIFELKENDRIFVSVTNEHLIDMDHEASFFGAFAVSGAAAHITGTRGRSNTLSSPNSKNEKALGRKINSWESSRSGHSFLSNLHLRNGELVIHEKGFYYIYSQTYFRFQEEIKENTKNDKQMVQYIYKYTSYPDPILLMKSARNSCWSKDAEYGLYSIYQGGIFELKENDRIFVSVTNEHLIDMDHEASFFGAFAVS
modifications: glycosylated connecting peptide
For B4, the “EC50 of cell death induction, Colo205, with Bortezomib” value [2] was 0.026 nM, the “EC50 … Colo205, with Bortezomib + Cetuximab” value [2] was 0.061 nM and the “EC50 of cell death induction, HCT116, with Bortezomib” value [2] was 0.051 nM. For the same binder, the “EC50 … HCT116, with Bortezomib + Cetuximab” value [2] was 0.3 nM, the “EC50 of cell death induction, HT1080, with Bortezomib” value [2] was 0.0009 nM and the “EC50 … HT1080, with Bortezomib + Cetuximab” value [2] was 0.007 nM.

B5: Dbhu225-scTRAIL3-FLVGGGPQRVA (other, not shown: small tags and cut ends)
chain: DYKDDDDKGGGGSGTEVQLVESGGGLVQPGGSLRLSCAASGFSLTNYGVHWVRQAPGKGLEWLGVIWSGGNTDYNTPFTSRFTISRDNSKNTLYLQMNSLRAEDTAVYYCARALTYYDYEFAYWGQGTTVTVSSGGGGSDIQLTQSPSFLSASVGDRVTITCRASQSIGTNIHWYQQKPGKAPKLLIKYASESISGVPSRFSGSGSGTEFTLTISSLQPEDFATYYCQQNNNWPTTFGAGTKLEIKRAAAGGSGGGPQRVAAHITGTRGRSNTLSSPNSKNEKALGRKINSWESSRSGHSFLSNLHLRNGELVIHEKGFYYIYSQTYFRFQEEIKENTKNDKQMVQYIYKYTSYPDPILLMKSARNSCWSKDAEYGLYSIYQGGIFELKENDRIFVSVTNEHLIDMDHEASFFGAFLVGGGPQRVAAHITGTRGRSNTLSSPNSKNEKALGRKINSWESSRSGHSFLSNLHLRNGELVIHEKGFYYIYSQTYFRFQEEIKENTKNDKQMVQYIYKYTSYPDPILLMKSARNSCWSKDAEYGLYSIYQGGIFELKENDRIFVSVTNEHLIDMDHEASFFGAFLVGGGPQRVAAHITGTRGRSNTLSSPNSKNEKALGRKINSWESSRSGHSFLSNLHLRNGELVIHEKGFYYIYSQTYFRFQEEIKENTKNDKQMVQYIYKYTSYPDPILLMKSARNSCWSKDAEYGLYSIYQGGIFELKENDRIFVSVTNEHLIDMDHEASFFGAFLVG
In the case of B5, the “EC50 of cell death induction, Colo205, with Bortezomib” value [3] is reported as 0.0038 nM, the “EC50 of cell death induction, Colo205, without bortezomib” value (“EC50 … Colo205, without bortezomib” for short) [3] is reported as 0.041 nM and the “EC50 of cell death induction, Colo205 in presence of Cetuximab, with bortezomib” value (“EC50 … of Cetuximab, with bortezomib” for short) [3] is reported as 0.0138 nM. For the same binder, the “EC50 of cell death induction, Colo205 in presence of Cetuximab, without bortezomib” value (shortened to “EC50 … of Cetuximab, without bortezomib”) [3] was 0.102 nM.

B6: dsDbhu225-scTRAIL3-FLVGGGPQRVA (other, not shown: small tags and cut ends)
chain: B5 chain with G59C, A239C
For B6, the “EC50 of cell death induction, Colo205, with Bortezomib” value [3] was 0.0025 nM, the “EC50 … Colo205, without bortezomib” value [3] was 0.0212 nM and the “EC50 … of Cetuximab, with bortezomib” value [3] was 0.0072 nM. The “EC50 … of Cetuximab, without bortezomib” value [3] was 0.0423 nM.

B7: scFvhu225-EHD2-scTRAIL3-FLVGGGPQRVA (other)
chain: DYKDDDDKGGGGSGTEVQLVESGGGLVQPGGSLRLSCAASGFSLTNYGVHWVRQAPGKGLEWLGVIWSGGNTDYNTPFTSRFTISRDNSKNTLYLQMNSLRAEDTAVYYCARALTYYDYEFAYWGQGTTVTVSSGGGGSGGGGSGGGGSDIQLTQSPSFLSASVGDRVTITCRASQSIGTNIHWYQQKPGKAPKLLIKYASESISGVPSRFSGSGSGTEFTLTISSLQPEDFATYYCQQNNNWPTTFGAGTKLEIKRAAAGGSGGDFTPPTVKILQSSCDGGGHFPPTIQLLCLVSGYTPGTINITWLEDGQVMDVDLSTASTTQEGELASTQSELTLSQKHWLSDRTYTCQVTYQGHTFEDSTKKCADSNGGSGGASSGGGPQRVAAHITGTRGRSNTLSSPNSKNEKALGRKINSWESSRSGHSFLSNLHLRNGELVIHEKGFYYIYSQTYFRFQEEIKENTKNDKQMVQYIYKYTSYPDPILLMKSARNSCWSKDAEYGLYSIYQGGIFELKENDRIFVSVTNEHLIDMDHEASFFGAFLVGGGPQRVAAHITGTRGRSNTLSSPNSKNEKALGRKINSWESSRSGHSFLSNLHLRNGELVIHEKGFYYIYSQTYFRFQEEIKENTKNDKQMVQYIYKYTSYPDPILLMKSARNSCWSKDAEYGLYSIYQGGIFELKENDRIFVSVTNEHLIDMDHEASFFGAFLVGGGPQRVAAHITGTRGRSNTLSSPNSKNEKALGRKINSWESSRSGHSFLSNLHLRNGELVIHEKGFYYIYSQTYFRFQEEIKENTKNDKQMVQYIYKYTSYPDPILLMKSARNSCWSKDAEYGLYSIYQGGIFELKENDRIFVSVTNEHLIDMDHEASFFGAFLVG
With B7 the “EC50 of cell death induction, Colo205, with Bortezomib” value [3] was 0.0018 nM, the “EC50 … Colo205, without bortezomib” value [3] was 0.0119 nM and the “EC50 … of Cetuximab, with bortezomib” value [3] was 0.0067 nM. The “EC50 … of Cetuximab, without bortezomib” value [3] was 0.0693 nM.
